Reference: patent publication US20220073608A1 (JIANGSU HUAIYU PHARMACEUTICAL, published 2022)
Changes are numbered by the printed parent chain.

T1: biotinylated hSEMA4D ECD-His (human, UniProt Q92854 22-734, biotinylated with Biotin-X-X-NHS at a molar ratio of 8:1; sites not stated)
T1 construct: also called biotinylated immunogen; not shown: His tag of the pCP vector
T1 sequence: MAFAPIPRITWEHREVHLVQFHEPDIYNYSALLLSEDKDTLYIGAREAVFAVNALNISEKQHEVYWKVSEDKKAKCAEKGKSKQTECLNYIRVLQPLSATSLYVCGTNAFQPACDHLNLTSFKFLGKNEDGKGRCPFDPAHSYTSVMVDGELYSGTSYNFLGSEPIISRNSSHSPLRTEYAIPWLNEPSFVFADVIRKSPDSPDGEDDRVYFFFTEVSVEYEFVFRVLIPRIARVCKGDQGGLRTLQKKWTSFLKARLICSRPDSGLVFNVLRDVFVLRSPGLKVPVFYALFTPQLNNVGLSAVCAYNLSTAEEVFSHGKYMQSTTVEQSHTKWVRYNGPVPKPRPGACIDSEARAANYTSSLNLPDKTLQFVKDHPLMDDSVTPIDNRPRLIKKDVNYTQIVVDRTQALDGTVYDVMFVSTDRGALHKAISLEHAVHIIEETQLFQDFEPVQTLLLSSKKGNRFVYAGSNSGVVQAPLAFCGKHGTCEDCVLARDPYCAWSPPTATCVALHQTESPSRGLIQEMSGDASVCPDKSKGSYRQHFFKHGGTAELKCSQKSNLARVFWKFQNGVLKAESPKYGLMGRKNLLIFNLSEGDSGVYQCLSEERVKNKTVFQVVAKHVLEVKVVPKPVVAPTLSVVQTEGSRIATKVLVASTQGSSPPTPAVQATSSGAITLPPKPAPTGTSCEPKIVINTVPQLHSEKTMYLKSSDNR

B1: 32C8F10 (antibody, V domains shown)
VH: EVQLQQSGAELVRPGASVKLSCTASGFNIKDEYIHWVKQRPEQGLEWIGWIDPANGHTEYASRFQAKATITADTSSNTAYLQLSSLTSEDTAVYYCTTGDYDGFAYWGQGTLVTVST
VL: QIVLTQSPAIMSASPGEKVTISCSARSSVSYMYWYQQKPGSSPKPWIYRTSNLASGVPARFSGSGSGTSYSLTISSMEAEDAATYYCQHYHTYPYTFGGGTKLEIK
notes: Mouse monoclonal antibody purified from hybridoma supernatant on protein A
B2: 31C11G2 (antibody, V domains shown)
VH: B1 VH with A105V
VL: B1 VL with S22F
notes: as for B1
B3: 31G10C5 (antibody, V domains shown)
VH: B1 VH with E32D, T58I, R63N, A105T
VL: B1 VL
notes: as for B1

Target: T1, biotinylated hSEMA4D ECD-His
Assay: FACS, blocking of biotinylated hSEMA4D ECD-His binding to 293F hPlexin B1 cells; Ab 333 nM
Procedure: (§1) The medium was aspirated, the cells were washed once with PBS buffer (purchased from Invitrogen), and then treated with cell dissociation fluid (TrypLE™ Express Enzyme, purchased from Life technology), and the cells were collected. After the cells counted, the cells were washed once with PBS phosphate buffer, and diluted to 1×10⁶ cells per milliliter, and added to the 96-well FACS reaction plate as 100 μL per well. 2% (w/w) fetal calf serum was added to PBS phosphate buffer as FACS buffer, with which the cells were washed once by centrifugation at 2000 rpm 4° C. Meanwhile, the purified leading antibody and biotinylated hSEMA4D ECD-His were mixed and incubated on ice for 30 minutes. Then 100 μL of the mixture was added to each well and the plate was incubated on ice for 1 hour. […] Cells were washed 2 times by centrifugation with FACS buffer. The cells were suspended with 200 μL of FACS buffer, and FACS (FACS Verse, purchased from BD) was used to detect and analyze the results. The results are shown in FIGS. 11A-11B and Tables 20-21.

Binder	MFI (residual ligand binding)
B1	85.1
B2	50.8
B3	45.4

Target: T1, biotinylated hSEMA4D ECD-His
Assay: FACS, blocking of biotinylated hSEMA4D ECD-His binding to 293F hPlexin B1 cells; Ab 13.3 nM
Procedure: as §1

Binder	MFI (residual ligand binding)
B1	204
B2	266
B3	209

Target: T1, biotinylated hSEMA4D ECD-His
Assay: FACS, blocking of biotinylated hSEMA4D ECD-His binding to 293F hPlexin B1 cells; Ab 2.67 nM
Procedure: as §1

Binder	MFI (residual ligand binding)
B1	333
B2	415
B3	334

Target: T1, biotinylated hSEMA4D ECD-His
Assay: FACS, blocking of biotinylated hSEMA4D ECD-His binding to 293F hPlexin B1 cells; Ab 66.7 nM
Procedure: as §1

Binder	MFI (residual ligand binding)
B1	55.5
B2	54.2
B3	54.2

Target: T1, biotinylated hSEMA4D ECD-His
Assay: FACS, blocking of biotinylated hSEMA4D ECD-His binding to 293F hPlexin B1 cells; Ab 0.107 nM
Procedure: as §1

Binder	MFI (residual ligand binding)
B1	454
B2	530
B3	460

Target: T1, biotinylated hSEMA4D ECD-His
Assay: FACS, blocking of biotinylated hSEMA4D ECD-His binding to 293F hPlexin B1 cells; Ab 0.534 nM
Procedure: as §1

Binder	MFI (residual ligand binding)
B1	420
B2	513
B3	427

Target: T1, biotinylated hSEMA4D ECD-His
Assay: FACS, blocking of biotinylated hSEMA4D ECD-His binding to 293F hPlexin B1 cells; Ab 0.0213 nM
Procedure: as §1

Binder	MFI (residual ligand binding)
B1	463
B2	547
B3	466

Target: T1, biotinylated hSEMA4D ECD-His
Assay: FACS, blocking of biotinylated hSEMA4D ECD-His binding to 293F hPlexin B1 cells; Ab 0.00427 nM
Procedure: as §1

Binder	MFI (residual ligand binding)
B1	471
B2	544
B3	470
